Our source for the ADP-ribosylation of CD4 T cells (eNAD staining, flow cytometry) and ADP-ribosylation of CD8 T cells (eNAD staining, flow cytometry) values is patent publication US20250382381A1.

The target in the experiment is mouse ART2 (ART2.2) on T cells (mouse) (UniProt O35975). The experiment in a line: cell-based or functional assay.
Chain of mouse ART2 (ART2.2) on T cells (mouse) (O35975 21-260): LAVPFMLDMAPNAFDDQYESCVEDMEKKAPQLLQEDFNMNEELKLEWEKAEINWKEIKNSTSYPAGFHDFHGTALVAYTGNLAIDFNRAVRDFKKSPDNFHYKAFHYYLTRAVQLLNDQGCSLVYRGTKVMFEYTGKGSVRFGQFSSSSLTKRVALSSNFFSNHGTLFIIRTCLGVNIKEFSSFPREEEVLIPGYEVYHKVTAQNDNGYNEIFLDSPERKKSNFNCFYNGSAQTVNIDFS

In the case of ART2-blocking nanobody (s+16a) (VHH), the ADP-ribosylation of CD4 T cells (eNAD staining, flow cytometry) worked out at 9.3% and the ADP-ribosylation of CD8 T cells (eNAD staining, flow cytometry) was determined as 12.9%.
